Experiments:
RNF208 [1] = target: RNF208 (UniProt Q9H0X6); test: anti-Flag co-IP, Myc immunoblot; conditions: reference: wild type; sites S39
RNF208 [2] = target: RNF208 (UniProt Q9H0X6); test: anti-Flag co-IP, immunoblot; conditions: reference: wild type; sites S39

binding against the reference (RNF208 [1]): lost
binding against the reference (RNF208 [2]): weaker
Substance: Vimentin (from UniProt P08670) S39A
